The chains are these.
B1: CTX-1160 (peptide)
peptide: Ac-[Nle][dA]HFR[dW]DR[dF]K-OH
SMILES: CCCC[C@H](NC(C)=O)C(=O)N[C@H](C)C(=O)N[C@@H](Cc1c[nH]cn1)C(=O)N[C@@H](Cc1ccccc1)C(=O)N[C@@H](CCCNC(=N)N)C(=O)N[C@H](Cc1c[nH]c2ccccc12)C(=O)N[C@@H](CC(=O)O)C(=O)N[C@@H](CCCNC(=N)N)C(=O)N[C@H](Cc1ccccc1)C(=O)N[C@@H](CCCCN)C(=O)O
B2: CTX-1108 (peptide)
peptide: H-YV[Nle][dA]HFR[dW]D-NH2
SMILES: CCCC[C@H](NC(=O)[C@@H](NC(=O)[C@@H](N)Cc1ccc(O)cc1)C(C)C)C(=O)N[C@H](C)C(=O)N[C@@H](Cc1c[nH]cn1)C(=O)N[C@@H](Cc1ccccc1)C(=O)N[C@@H](CCCNC(=N)N)C(=O)N[C@H](Cc1c[nH]c2ccccc12)C(=O)N[C@@H](CC(=O)O)C(N)=O
B3: CTX-1169 (peptide)
peptide: Ac-[Nle][dA]H[Phe(4-I)]R[dW]DRF-NH2
SMILES: CCCC[C@H](NC(C)=O)C(=O)N[C@H](C)C(=O)N[C@@H](Cc1c[nH]cn1)C(=O)N[C@@H](Cc1ccc(I)cc1)C(=O)N[C@@H](CCCNC(=N)N)C(=O)N[C@H](Cc1c[nH]c2ccccc12)C(=O)N[C@@H](CC(=O)O)C(=O)N[C@@H](CCCNC(=N)N)C(=O)N[C@@H](Cc1ccccc1)C(N)=O
B4: CTX-1170 (peptide)
peptide: Ac-[Nle][dA]H[Phe(4-I)]R[dW]DR-NH2
SMILES: CCCC[C@H](NC(C)=O)C(=O)N[C@H](C)C(=O)N[C@@H](Cc1c[nH]cn1)C(=O)N[C@@H](Cc1ccc(I)cc1)C(=O)N[C@@H](CCCNC(=N)N)C(=O)N[C@H](Cc1c[nH]c2ccccc12)C(=O)N[C@@H](CC(=O)O)C(=O)N[C@@H](CCCNC(=N)N)C(N)=O
B5: CTX-1548 (peptide)
peptide: H-YVMGRFR[dW]DRFG-OH
SMILES: CSCC[C@H](NC(=O)[C@@H](NC(=O)[C@@H](N)Cc1ccc(O)cc1)C(C)C)C(=O)NCC(=O)N[C@@H](CCCNC(=N)N)C(=O)N[C@@H](Cc1ccccc1)C(=O)N[C@@H](CCCNC(=N)N)C(=O)N[C@H](Cc1c[nH]c2ccccc12)C(=O)N[C@@H](CC(=O)O)C(=O)N[C@@H](CCCNC(=N)N)C(=O)N[C@@H](Cc1ccccc1)C(=O)NCC(=O)O
B6: CTX-1167 (peptide)
peptide: Ac-[Nle][dA]H[Phe(4-I)]R[dW]DRFG-OH
SMILES: CCCC[C@H](NC(C)=O)C(=O)N[C@H](C)C(=O)N[C@@H](Cc1c[nH]cn1)C(=O)N[C@@H](Cc1ccc(I)cc1)C(=O)N[C@@H](CCCNC(=N)N)C(=O)N[C@H](Cc1c[nH]c2ccccc12)C(=O)N[C@@H](CC(=O)O)C(=O)N[C@@H](CCCNC(=N)N)C(=O)N[C@@H](Cc1ccccc1)C(=O)NCC(=O)O
B7: CTX-1144 (peptide)
peptide: Ac-[Nle][dAbu]HFR[dW]DRFG-OH
SMILES: CCCC[C@H](NC(C)=O)C(=O)N[C@H](CC)C(=O)N[C@@H](Cc1c[nH]cn1)C(=O)N[C@@H](Cc1ccccc1)C(=O)N[C@@H](CCCNC(=N)N)C(=O)N[C@H](Cc1c[nH]c2ccccc12)C(=O)N[C@@H](CC(=O)O)C(=O)N[C@@H](CCCNC(=N)N)C(=O)N[C@@H](Cc1ccccc1)C(=O)NCC(=O)O
B8: CTX-1159 (peptide)
peptide: Ac-[Nle][dA]HFR[dW]DR[dF]-NH2
SMILES: CCCC[C@H](NC(C)=O)C(=O)N[C@H](C)C(=O)N[C@@H](Cc1c[nH]cn1)C(=O)N[C@@H](Cc1ccccc1)C(=O)N[C@@H](CCCNC(=N)N)C(=O)N[C@H](Cc1c[nH]c2ccccc12)C(=O)N[C@@H](CC(=O)O)C(=O)N[C@@H](CCCNC(=N)N)C(=O)N[C@H](Cc1ccccc1)C(N)=O
B9: CTX-1145 (peptide)
peptide: Ac-[Nle][dA]HFR[dW]DR[dF]G-OH
SMILES: CCCC[C@H](NC(C)=O)C(=O)N[C@H](C)C(=O)N[C@@H](Cc1c[nH]cn1)C(=O)N[C@@H](Cc1ccccc1)C(=O)N[C@@H](CCCNC(=N)N)C(=O)N[C@H](Cc1c[nH]c2ccccc12)C(=O)N[C@@H](CC(=O)O)C(=O)N[C@@H](CCCNC(=N)N)C(=O)N[C@H](Cc1ccccc1)C(=O)NCC(=O)O
B10: CTX-1142 (peptide)
peptide: H-[dY]V[Nle][dA]HFR[dW]D-NH2
SMILES: CCCC[C@H](NC(=O)[C@@H](NC(=O)[C@H](N)Cc1ccc(O)cc1)C(C)C)C(=O)N[C@H](C)C(=O)N[C@@H](Cc1c[nH]cn1)C(=O)N[C@@H](Cc1ccccc1)C(=O)N[C@@H](CCCNC(=N)N)C(=O)N[C@H](Cc1c[nH]c2ccccc12)C(=O)N[C@@H](CC(=O)O)C(N)=O
B11: CTX-1105 (peptide)
peptide: H-YVEGHFR[dW]DRFG-NH2
SMILES: CC(C)[C@H](NC(=O)[C@@H](N)Cc1ccc(O)cc1)C(=O)N[C@@H](CCC(=O)O)C(=O)NCC(=O)N[C@@H](Cc1c[nH]cn1)C(=O)N[C@@H](Cc1ccccc1)C(=O)N[C@@H](CCCNC(=N)N)C(=O)N[C@H](Cc1c[nH]c2ccccc12)C(=O)N[C@@H](CC(=O)O)C(=O)N[C@@H](CCCNC(=N)N)C(=O)N[C@@H](Cc1ccccc1)C(=O)NCC(N)=O
B12: CTX-1158 (peptide)
peptide: Ac-[Nle][dA]HFR[dW]DRF-NH2
SMILES: CCCC[C@H](NC(C)=O)C(=O)N[C@H](C)C(=O)N[C@@H](Cc1c[nH]cn1)C(=O)N[C@@H](Cc1ccccc1)C(=O)N[C@@H](CCCNC(=N)N)C(=O)N[C@H](Cc1c[nH]c2ccccc12)C(=O)N[C@@H](CC(=O)O)C(=O)N[C@@H](CCCNC(=N)N)C(=O)N[C@@H](Cc1ccccc1)C(N)=O
B13: CTX-1143 (peptide)
peptide: Ac-[Nle][Aib]HFR[dW]DRFG-OH
SMILES: CCCC[C@H](NC(C)=O)C(=O)NC(C)(C)C(=O)N[C@@H](Cc1c[nH]cn1)C(=O)N[C@@H](Cc1ccccc1)C(=O)N[C@@H](CCCNC(=N)N)C(=O)N[C@H](Cc1c[nH]c2ccccc12)C(=O)N[C@@H](CC(=O)O)C(=O)N[C@@H](CCCNC(=N)N)C(=O)N[C@@H](Cc1ccccc1)C(=O)NCC(=O)O
B14: CTX-1141 (peptide)
peptide: H-[NMeY]V[Nle][dA]HFR[dW]D-NH2
SMILES: CCCC[C@H](NC(=O)[C@@H](NC(=O)[C@H](Cc1ccc(O)cc1)NC)C(C)C)C(=O)N[C@H](C)C(=O)N[C@@H](Cc1c[nH]cn1)C(=O)N[C@@H](Cc1ccccc1)C(=O)N[C@@H](CCCNC(=N)N)C(=O)N[C@H](Cc1c[nH]c2ccccc12)C(=O)N[C@@H](CC(=O)O)C(N)=O
B15: CTX-1130 (peptide)
peptide: H-YV[Nle][Aib]HFR[dW]D-NH2
SMILES: CCCC[C@H](NC(=O)[C@@H](NC(=O)[C@@H](N)Cc1ccc(O)cc1)C(C)C)C(=O)NC(C)(C)C(=O)N[C@@H](Cc1c[nH]cn1)C(=O)N[C@@H](Cc1ccccc1)C(=O)N[C@@H](CCCNC(=N)N)C(=O)N[C@H](Cc1c[nH]c2ccccc12)C(=O)N[C@@H](CC(=O)O)C(N)=O

Non-standard residues stand in square brackets, D forms with d. Phe(4-I) = N[C@@H](Cc1ccc(I)cc1)C(=O)O; NMeY = CN[C@@H](Cc1ccc(O)cc1)C(=O)O; Nle = CCCC[C@H](N)C(=O)O; dAbu = CC[C@@H](N)C(=O)O; Aib = CC(C)(N)C(=O)O

The target of the assay is human MC3R (human, UniProt P41968 1-323). The assay can be described thus: cell-based or functional assay.
Chain of human MC3R (P41968 whole entry): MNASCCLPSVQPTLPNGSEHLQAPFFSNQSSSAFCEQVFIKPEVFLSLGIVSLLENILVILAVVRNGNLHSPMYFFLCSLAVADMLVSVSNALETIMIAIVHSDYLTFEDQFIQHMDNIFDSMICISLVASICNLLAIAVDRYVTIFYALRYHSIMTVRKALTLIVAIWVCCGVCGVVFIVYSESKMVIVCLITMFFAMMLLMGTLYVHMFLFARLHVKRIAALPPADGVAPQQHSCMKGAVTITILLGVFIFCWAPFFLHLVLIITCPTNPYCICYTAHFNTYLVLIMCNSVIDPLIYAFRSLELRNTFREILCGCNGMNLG
YVXAHFRWDRFG (Nle at 3; D-Ala at 4; Phe(4-Br) at 6; D-Trp at 8) [CTX-2120]: the “MC3R cAMP (EC50)” value stood at 2.3 nM and the “MC3R selectivity (relative to MC4R)” value came to 173.

In the case of YVXAHFRWDRFG (Nle at 3; D-Ala at 4; Phe(4-Cl) at 6; D-Trp at 8) [CTX-2121], the “MC3R cAMP (EC50)” value was 2.5 nM and the “MC3R selectivity (relative to MC4R)” value was found to be 93.

As for B1, the “MC3R cAMP (EC50)” value was found to be 9.8 nM and the “MC3R selectivity (relative to MC4R)” value was 1260.

Take B2: the “MC3R cAMP (EC50)” value amounted to 12 nM and the “MC3R selectivity (relative to MC4R)” value is 79.

With YVXAHFRWDRFG (Nle at 3; D-Ala at 4; Phe(4-I) at 6; D-Trp at 8) [CTX-2122], the “MC3R cAMP (EC50)” value stood at 3.2 nM and the “MC3R selectivity (relative to MC4R)” value came to 324.

With B3, the “MC3R cAMP (EC50)” value was determined as 4.8 nM and the “MC3R selectivity (relative to MC4R)” value amounted to 200.

YVXXHFRWDRFG (Nle at 3; Aib at 4; D-Trp at 8) [CTX-1134]: the “MC3R cAMP (EC50)” value was 2.5 nM and the “MC3R selectivity (relative to MC4R)” value turned out to be 566.

With B4, the “MC3R cAMP (EC50)” value was 26 nM and the “MC3R selectivity (relative to MC4R)” value worked out at 67.

As for B5, the “MC3R cAMP (EC50)” value turned out to be 3.8 nM and the “MC3R selectivity (relative to MC4R)” value was 267.

On to B6, for which the “MC3R cAMP (EC50)” value came out at 4.8 nM and the “MC3R selectivity (relative to MC4R)” value came to 937.

For the molecule YVXAHFRWDRFG (Nle at 3; D-Ala at 4; D-Trp at 8; D-Phe at 11) [CTX-1127], the “MC3R cAMP (EC50)” value was 2.5 nM and the “MC3R selectivity (relative to MC4R)” value came out at 95.

With B7, the “MC3R cAMP (EC50)” value amounted to 6.6 nM and the “MC3R selectivity (relative to MC4R)” value turned out to be 2630.

As to B8, the “MC3R cAMP (EC50)” value is 14.3 nM and the “MC3R selectivity (relative to MC4R)” value was 213.

For the molecule B9, the “MC3R cAMP (EC50)” value came to 52.9 nM and the “MC3R selectivity (relative to MC4R)” value was found to be 535.

With YVXAHFRWDRFG (Nle at 3; D-Ala at 4; D-Trp at 8; D-Arg at 10) [CTX-1126], the “MC3R cAMP (EC50)” value was 3 nM and the “MC3R selectivity (relative to MC4R)” value turned out to be 43.

In the case of B10, the “MC3R cAMP (EC50)” value turned out to be 36 nM and the “MC3R selectivity (relative to MC4R)” value stood at 54.

Regarding B11, the “MC3R cAMP (EC50)” value was 20 nM and the “MC3R selectivity (relative to MC4R)” value is 500.

As to YVXGRFRWDRFG (Nle at 3; D-Trp at 8) [CTX-1549], the “MC3R cAMP (EC50)” value amounted to 2.4 nM and the “MC3R selectivity (relative to MC4R)” value is 102.

As to B12, the “MC3R cAMP (EC50)” value came to 2.6 nM and the “MC3R selectivity (relative to MC4R)” value is 535.

Regarding B13, the “MC3R cAMP (EC50)” value came out at 13.4 nM and the “MC3R selectivity (relative to MC4R)” value was found to be 3540.

In the case of YVXAHFRWDRFG (Nle at 3; D-Ala at 4; D-Trp at 8) [CTX-1103], the “MC3R cAMP (EC50)” value amounted to 4.3 nM and the “MC3R selectivity (relative to MC4R)” value was found to be 229.

With B14, the “MC3R cAMP (EC50)” value came to 2.2 nM and the “MC3R selectivity (relative to MC4R)” value came to 55.

On to B15, for which the “MC3R cAMP (EC50)” value was 26.5 nM and the “MC3R selectivity (relative to MC4R)” value amounted to 58.

For the origin of these results see patent US20240287154A1, “MC3R AGONIST PEPTIDES” (The Regents of the University of Michigan, priority 2021, published 2024).
